Experimental data reported in paper PMC3032881.
Like-named read-outs stand apart in the source and are kept apart here.

Assays:
[1] = biological target: HLA A*0201 on the surface of TAP deficient T2 cells (human (endogenous in T2 cells)); assay: flow cytometry on cells; T2-binding assay: TAP deficient T2 cells with peptide at 100, 50, 10 and 1 μM in AIM-V, 10 min 37 °C, room temperature overnight, 2 h 37 °C; surface HLA A*0201 stained with anti-human HLA A*0201:RPE; MFI fitted (log(agonist) vs. response) to logEC50
[2] = biological target: soluble recombinant HLA A*0201 (α chain tagged with a biotinylation sequence, with β2m); assay: SPR; real time pMHC stability assay, BIAcore 3000, CM5 chip; ~500 RU of biotinylated refolded pMHCI immobilised on streptavidin; flow 10 μl/min for 15,000 s; Langmuir dissociation analysis converted to half-life
[3] = biological target: soluble recombinant HLA A*0201 (α chain tagged with a biotinylation sequence, with β2m); assay: as above; remark: listed apart in the source
[4] = biological target: HLA A*0201 on the surface of TAP deficient T2 cells (human (endogenous in T2 cells)); assay: flow cytometry on cells; T2-binding assay: TAP deficient T2 cells with peptide at 100, 50, 10 and 1 μM in AIM-V, 10 min 37 °C, room temperature overnight, 2 h 37 °C; surface HLA A*0201 stained with anti-human HLA A*0201:RPE; MFI fitted (log(agonist) vs. response) to logEC50; remark: listed apart in the source

| LogEC50 [1] | half-life [2] | half-life [3] | koff [3] | LogEC50 [4] | Binder |
| --- | --- | --- | --- | --- | --- |
| -3.59 M | 5.8 h |  |  |  | YLEPGPVTA (modifications not checked) [gp100 280-288 peptide YLEPGPVA] |
|  |  | 10.1 h | 1.9e-05 s⁻¹ | -4.37 M | SLLMWITQL [NY-ESO-1 157-165 heteroclitic peptide …] |
